Experimental data reported in publication doi:10.1101/2023.06.09.544317.

Biological target: tRNA pseudouridine synthase from archaea (Q8U2C1) (P. furiosus)
Test: mass photometry

**Q.** How did the stoichiometry N turn out when “tRNA pseudouridine synthase from archaea (Q8U2C1) (enzyme)” was run?
**A.** 2
